The text below walks through data of publication PMC6525264.

Series [1] in a line: Western blot of media, sAPPβ (1A9). Particulars: glycan lost; control: empty vector (Hyg) cell line.
The nature of series [2]: flow cytometry, cell surface APP, non-permeabilised cells. Particulars: glycan lost; control: APPWT cell line.

For the substance “β-Amyloid precursor protein (APP695): APPN496K”, in series [1], the “other: proteolytic processing” value is on record as “decreases”. In series [2], the localisation_or_trafficking result is “decreases”.

With “β-Amyloid precursor protein (APP695): APPN467K”, in series [1], the “other: proteolytic processing” value was “decreases”. Besides, the localisation_or_trafficking entry in series [2] is reported as “decreases”.
